The target in assay [1] is purified human IgG1 (human). Briefly: cell adhesion assay.
The target of assay [2] is human P-cadherin–Fc fusion protein (human) (UniProt P22223). Briefly: cell adhesion assay.
Sequence of human P-cadherin–Fc fusion protein (human) (P22223 108-654): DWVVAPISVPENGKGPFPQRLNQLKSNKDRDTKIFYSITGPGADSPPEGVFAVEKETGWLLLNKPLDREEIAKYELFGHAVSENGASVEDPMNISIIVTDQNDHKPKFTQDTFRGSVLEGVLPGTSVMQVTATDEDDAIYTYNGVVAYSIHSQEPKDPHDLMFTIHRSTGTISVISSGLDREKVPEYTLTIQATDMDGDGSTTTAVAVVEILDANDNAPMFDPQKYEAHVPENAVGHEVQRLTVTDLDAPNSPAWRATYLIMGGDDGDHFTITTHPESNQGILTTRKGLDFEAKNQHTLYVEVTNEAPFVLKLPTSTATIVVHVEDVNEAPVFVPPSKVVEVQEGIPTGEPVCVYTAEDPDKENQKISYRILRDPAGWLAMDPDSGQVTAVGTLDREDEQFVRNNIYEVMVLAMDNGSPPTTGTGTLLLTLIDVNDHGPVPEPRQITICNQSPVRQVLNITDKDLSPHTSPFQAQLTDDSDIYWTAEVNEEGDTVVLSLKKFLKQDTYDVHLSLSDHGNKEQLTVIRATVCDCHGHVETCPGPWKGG

Turning to “αEβ7 on JY′ cells transfected with full-length human αE (JY′-αE) (from UniProt P38570 19-1179; P26010 20-798) (complex)”, the percent of cells adhering in assay [1] is less than 3%.
“integrin αEβ7 of cultured human intestinal intraepithelial lymphocytes (from UniProt P38570 19-1179; P26010 20-798) (complex)”: in assay [2], the fold more coated fusion protein needed than of E-cadherin–Fc was more than 100 fold and the percent of cells adhering at 500 ng/well worked out at 40%.

(Values after PMC2132596.)
